# Where no end group is shown, it is not given here.
# Legend:
# β2 adrenergic receptor = β2 adrenergic receptor (Homo sapiens, UniProt P07550); experiment: ELISA binding of peptides panned from the Gs library to β2 adrenergic receptor; conditions: recombinant reconstituted β2 adrenergic receptor; peptides selected from Gs library
# Source text: The methods of Example 7 were repeated using recombinant reconstituted β2 adrenergic receptor panned with the Gs Library.
# rhodopsin [1] = target: T1, rhodopsin (Bos taurus, UniProt P02699); experiment: ELISA binding of lysates of peptides panned from the Gt library to rhodopsin; set-up: species or system bovine; conditions: OD450 for wells with receptor minus OD450 for wells with no receptor
# T1 construct: Bovine rod outer segments (rhodopsin-containing membranes) were prepared from fresh retinas; from tissue; host or cells: bovine retina, rod outer segment membranes (EDTA- and urea-washed)
# Experimental: The panning process is illustrated in FIG. 1. For screening of the library by “panning,” rhodopsin receptors prepared according to Example 5 were immobilized directly on Immulon 4 (Dynatech) microtiter wells (0.1-1 μg of protein per well) in cold 35 mM HEPES, pH 7.5, containing 0.1 mM EDTA, 50 mM KCl and 1 mM dithiothreitol (HEK/DTT). After shaking for one hour at 4° C., unbound membrane fragments were washed away with HEK/DTT. The wells were blocked with 100 μl 2% BSA in HEKL (35 mM HEPES; 0.1 mM EDTA; 50 mM KCl; 0.2 M α-lactose; pH 7.5, with 1 mM DTT). For rounds 1 and 2, BSA was used for blocking; in later rounds 1% nonfat dry milk was used. For the first round of panning, about 24 wells of a 96-well plate were used. In subsequent rounds, 8 wells with receptor and 8 wells without receptor were prepared.
# The Gt library was thawed (2 mL aliquot) and mixed with 6 mL lysis buffer on ice. Lysis buffer contains 4.25 mL HE (25 mM HEPES: 0.1 mM EDTA; pH 7.5); 1 mL 50% glycerol; 750 μL 10 mg/mL protease-free BSA in HE; 10 μL 0.5 M DTT; and 6.25 μL 0.2 M PMSF. Freshly prepared lysozyme solution (150 μL 10 mg/mL lysozyme in cold HE) was added and the tube was gently inverted several times and incubated on ice for no more than two minutes. The extent of lysis is evidenced by an increase in viscosity that can be observed by noting the slow migration of bubbles to the top of the tube after mixing. Lysis was terminated by mixing in 2 mL 20% lactose and 250 μL 2M KCl. The tube was centrifuged immediately at 13,000×g for 15 minutes at 4° C. and the supernatant transferred to a new tube. A small aliquot of 0.1% (the PRE sample) was saved in a separate, labeled tube. […] Immediately thereafter, the crude bacterial lysate from the peptide library (200 μL) was added to each well and allowed to shake gently for one hour at 4° C. For round 2, this same procedure was followed. In round 3, the amount of lysate used was reduced to 100 μL. In subsequent rounds, the lysate was diluted 1:10 in HEKL/BSA. In all rounds, 5-10 μL 200 μM native peptide was added to the wells to chase off peptides that were bound with lower affinity.
# The methods of Example 7 repeated using rhodopsin screening with a Gt library. To identify the rank order of binding, the lysates were analyzed using ELISA methods in which the secondary antibody was conjugated to HRP. Following addition of the substrate, the microplate was read using a spectrophotometer. The binding is the OD450 for wells with receptor—OD450 for wells in which no receptor (control wells with empty lipid vesicles).
# [2] = target: T2, light-activated rhodopsin (Bos taurus, UniProt P02699); experiment: ELISA binding of MBP-peptide fusion proteins to light-activated rhodopsin; set-up: species or system bovine; conditions: for EC50 / ELISA OD450: MBP-high affinity peptide fusion proteins; for EC50: read-out: MII binding EC50; for ELISA OD450: absorbance at OD450 in a panning ELISA
# T2 construct: Bovine rod outer segments (rhodopsin-containing membranes) were prepared from fresh retinas; from tissue; host or cells: bovine retina, rod outer segment membranes (EDTA- and urea-washed)
# Source text: The entire population of peptide-coding sequences identified in round 4 of panning (see Example 7) was transferred from pJS142 to pELM3 (New England Biolabs). This plasmid is a pMal-c2 derivative with a modified polylinker, inducible by isopropyl β-thiogalacto-pyranoside and containing the E. coli malE gene with a deleted leader sequence and leads to cytoplasmic expression of MBP fusion proteins. The MBP-carboxyl terminal peptide analog fusion proteins were expressed in E. coli.
# For the assay, in the dark, 1 μg/well of ROS membranes (rhodopsin) as described in Example 5 was directly immobilized on microtiter wells in cold HEK/DTT for one hour at 4° C. The wells were rinsed, blocked with 1% BSA in HEK/DTT for one hour at 4° C. and rinsed again. Bound rhodopsin was activated by exposure to light for 5 minutes on ice before addition of the MBP fusion proteins (crude bacterial lysates were diluted 1:50 in HEK with 1 μM dithiothreitol; purified proteins were used at 0.2-120 nM). The MBP-Gαt340-350K341R (pELM17) fusion protein and MBP with linker sequence only (pELM6) were present in control wells at 50 nM final concentration. After 30 minutes, wells were washed and rabbit anti-MBP antibody (New England Biolabs) was added. The anti-MBP antibody was used at a 1:1000 dilution for crude lysates and a 1:3000 dilution for purified proteins. After 30 minutes, wells were rewashed and goat anti-rabbit antibody conjugated to horseradish peroxidase (1:7500 dilution for crude lysates; 1:10,000 dilution for purified proteins; Kierkagaard & Perry Laboratories) was added. After 30 minutes, the plate was washed four times with PBS containing 0.05% Tween™20. Horseradish peroxidase substrate (100 μl) was added and color was allowed to develop for about 20 minutes. The reaction was stopped by addition of 100 μl 2N sulfuric acid. Values indicate absorbance at OD450. The positive control for the assay was pELM 17, which encodes the MBP fusion protein Gαt340-350K341R. pELM6, which expresses MBP protein fused to a linker sequence only, served as the negative control. “No lysate” control wells were included to reflect any intrinsic, non-specific binding within the assay. […]
# rhodopsin [3] = target: T1, rhodopsin; experiment: "extra MII" assay: stabilization of metarhodopsin II; type: biochemical, bovine; conditions: for EC50: MBP-high affinity peptide fusion proteins
# Source text: Rhodopsin can be measured spectrophotometrically in many of its conformational states. The high affinity, biologically active rhodopsin state can be easily differentiated from its precursor, MI, by the “extra” MII assay. See Example 35. This assay relies on the observation that under conditions of high pH and low temperature, MII is stabilized in the presence of Gt and can be spectrophotometrically measured. The ability of the C-terminal peptide to stabilize Meta II in the same manner as the heterotrimeric Gt, provides the tools to investigate the structural basis of the interaction of G proteins with the agonist binding sites of activated receptors.
# For the “extra MII” assay, EDTA-washed rhodopsin (Example 5; 5 μM) is incubated in a 50 mM HEPES buffer, pH 8.2, with 100 mM NaCl, 1 mM MgCl2, and 1 mM DTT at 5.3° C., in the absence or presence of varying concentrations of Gt340-350 analogs or Gt. The sample is maintained at 5.4° C. using a water-jacketed and thermostated circulator cuvette holder in an SLM Aminco DW2000 spectrophotometer at 390 and 440 nm. A flash of light bleaching 10% of the rhodopsin is presented and after a 1 min incubation, a second spectrum is measured and the difference in spectrum calculated. “Extra” MII is calculated as the difference between the absorbance at 390 and 440. Dose response curves of MII stabilization by αt340350 (λ), mutant α340-350K341L(ν), and heterotrimeric Gt (v) were analyzed by non-linear regression using the program GraphPad PRISM and are shown in FIG. 23.
# EDTA-washed rhodopsin (5 μM) was incubated in a 50 mM HEPES buffer, pH 8.2, with 100 mM NaCl, 1 mM MgCl2, and 1 mM DTT at 5.3° C., and “extra” MII was measured. For compounds that enhanced MBP-8 binding over 25% using the color coded readout, dose studies were performed to generate EC50 curves. Table XXII below provides the calculated EC50 for metarhodopsin II stabilization of each compound.
# PAR1 = target: T3, PAR1 (Homo sapiens, UniProt P25116); experiment: ELISA binding of purified MBP clones to SF9 membranes expressing PAR1 or muscarinic M1 receptor; set-up: expressed in transfected cells; host or cells: membranes of Sf9 insect cells infected with ThR/pBluebac recombinant virus; conditions: for specificity (in words): PAR1 versus Gq-coupled muscarinic M1 receptor; for binding affinity for PAR1 (in words): purified MBP clones, SF9 membranes
# T3 sequence (P25116 22-425): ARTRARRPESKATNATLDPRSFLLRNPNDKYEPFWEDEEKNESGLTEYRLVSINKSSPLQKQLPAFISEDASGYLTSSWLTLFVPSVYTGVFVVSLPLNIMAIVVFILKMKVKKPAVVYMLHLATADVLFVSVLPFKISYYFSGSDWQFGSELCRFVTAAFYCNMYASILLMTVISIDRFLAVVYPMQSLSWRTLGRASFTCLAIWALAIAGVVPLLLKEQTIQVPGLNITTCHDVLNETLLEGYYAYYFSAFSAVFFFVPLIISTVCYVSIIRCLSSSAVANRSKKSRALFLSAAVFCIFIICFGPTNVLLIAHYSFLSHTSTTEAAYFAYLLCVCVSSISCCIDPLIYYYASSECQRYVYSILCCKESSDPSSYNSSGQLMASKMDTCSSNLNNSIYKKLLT
# Experimental: To identify high affinity peptides that bind PAR1, membranes prepared from mammalian cells (Chinese hamster ovary) overexpressing PAR1 were panned with the G11 peptide library. ELISA binding affinity results of selected clones are shown in FIG. 9 for their binding to membranes prepared from SF9 cells expressing either PAR1 or the Gq-coupled muscarinic M1 receptor. To quantitate the binding, purified MBP clones were analyzed using ELISA methods in which the secondary antibody was conjugated to HRP. The binding for the control MBP-Gq fusion protein is shown. The data are the average of two separate experiments done in duplicate.
# T1 sequence (P02699 whole entry): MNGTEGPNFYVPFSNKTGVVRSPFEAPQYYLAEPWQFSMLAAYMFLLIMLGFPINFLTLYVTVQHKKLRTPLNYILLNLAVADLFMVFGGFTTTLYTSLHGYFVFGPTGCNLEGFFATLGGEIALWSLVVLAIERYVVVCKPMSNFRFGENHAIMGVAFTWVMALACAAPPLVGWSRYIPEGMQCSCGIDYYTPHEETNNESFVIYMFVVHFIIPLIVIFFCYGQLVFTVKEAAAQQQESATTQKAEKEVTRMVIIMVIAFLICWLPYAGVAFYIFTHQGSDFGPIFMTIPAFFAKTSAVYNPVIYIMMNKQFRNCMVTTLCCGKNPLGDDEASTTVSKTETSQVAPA
# T2 sequence (P02699 whole entry, the tested form may be a part): as the sequence (P02699 whole entry) above
sequence,measurement,setting,value
DRMHLWRFGLL [AG11],ELISA,β2 adrenergic receptor,.192
ERLHRRLFQLH [BAR8],ELISA,β2 adrenergic receptor,.047
HRRHIGEFALL [BAR11],ELISA,β2 adrenergic receptor,.048
ICENLKDCGLF [Clone L6],ELISA,rhodopsin [1],.342
ICENLKDCGLF [MBP-10],EC50,[2],42 nM
same,ELISA OD450,[2],.36
same,EC50,rhodopsin [3],5400 nM
"IKENLKDCGLF [Gt, reference compound]",EC50,[2],6000 nM
same,ELISA OD450,[2],.01
same,EC50,rhodopsin [3],> 100000 nM
ILENLKDCGLF [Clone L3],ELISA,rhodopsin [1],.839
ILESLNECGLF [Clone L34],ELISA,rhodopsin [1],.603
ILQNLKDCGLF [Clone L17],ELISA,rhodopsin [1],.600
IRGSLKDCGLF [Clone L20],ELISA,rhodopsin [1],.423
ISKNLRDCGLL [Clone L13],ELISA,rhodopsin [1],.187
IVKNLEDCGLF [Clone L8],ELISA,rhodopsin [1],.257
"LHLNLKEYNLV (also: fused to MBP) [PAR-33, MBP clone, linker LSTN]",specificity (in words),PAR1,low specificity
same,binding affinity for PAR1 (in words),PAR1,low affinity
LLDILKDCGLF [Clone L38],ELISA,rhodopsin [1],.823
LLENLRDCGMF [Peptide 8],EC50,[2],7.8 nM
same,ELISA OD450,[2],.54
same,EC50,rhodopsin [3],940 nM
LLENLRDCGMI [MBP-8],binding affinity to light-activated rhodopsin (in words),[2],high affinity
same,stabilization of MII (in words),rhodopsin [3],stabilized MII
"LQLNRNEYYLV (also: fused to MBP) [PAR-13, MBP clone, linker VRPS]",binding affinity for PAR1 (in words),PAR1,high affinity binding
"LQQKLKEYSLV (also: fused to MBP) [PAR-23, MBP clone, linker LSRS]",specificity (in words),PAR1,low specificity
same,binding affinity for PAR1 (in words),PAR1,low affinity
LQQVLKDCGLL [MBP-9],EC50,[2],10 nM
same,ELISA OD450,[2],.35
same,EC50,rhodopsin [3],1050 nM
LRENLKDCGLL [Clone L14],ELISA,rhodopsin [1],.833
MLDNLKACGLF [Clone L4],ELISA,rhodopsin [1],.908
MLDNLKDCGLF [Clone L7],ELISA,rhodopsin [1],.525
MLENLKDCGLF [MBP-18],binding affinity to light-activated rhodopsin (in words),[2],even higher binding affinities than did MBP-8
same,EC50,[2],3.8 nM
same,ELISA OD450,[2],.58
same,EC50,rhodopsin [3],1240 nM
MLKNLKDCGMF [MBP-24],binding affinity to light-activated rhodopsin (in words),[2],even higher binding affinities than did MBP-8
same,EC50,[2],6.6 nM
same,ELISA OD450,[2],.61
same,EC50,rhodopsin [3],490 nM
NCMKFRSCGLF [BAR20],ELISA,β2 adrenergic receptor,.079
PCIQLGQYESF [BAR40],ELISA,β2 adrenergic receptor,.028
PRPRLLRFKIP [AG19],ELISA,β2 adrenergic receptor,.361
QGEHLRQLQLQ [AG2],ELISA,β2 adrenergic receptor,.330
QGMQLRRFKLR [AG1],ELISA,β2 adrenergic receptor,.435
QRIHRRPFKFF [BAR1],ELISA,β2 adrenergic receptor,.218
QRLHLRGYEFL [AG13],ELISA,β2 adrenergic receptor,.054
"QRLNVGEYNLV (also: fused to MBP) [PAR-34, MBP clone, linker LPQM]",binding affinity for PAR1 (in words),PAR1,high affinity binding
QRLRLGPDELF [AG4],ELISA,β2 adrenergic receptor,.291
QRLRLRKYRLF [BAR31],ELISA,β2 adrenergic receptor,.026
QRMNLGPCGLL [AG18],ELISA,β2 adrenergic receptor,.155
QRMPLRLFEFL [AG3],ELISA,β2 adrenergic receptor,.217
QRMPLRQYELL [AG9],ELISA,β2 adrenergic receptor,.190
QRVHLRQDELL [BAR2],ELISA,β2 adrenergic receptor,.197
QWMDLRQHELL [BAR3],ELISA,β2 adrenergic receptor,.185
RWLHWQYRGRG [AG20],ELISA,β2 adrenergic receptor,.431
VLEDLKSCGLF [MBP-23],EC50,[2],20 nM
same,ELISA OD450,[2],.66
same,EC50,rhodopsin [3],3500 nM
VRDILKDCGLF [Clone L15],ELISA,rhodopsin [1],.621
